In assay [1] the target is Alpha RBD.
Assay [2] addresses Alpha RBD. This is another data set of the same source.

Seven molecules from patent publication US20230374116A1 (ROSALIND FRANKLIN INSTITUTE, published 2023) can be followed below.

Read-outs that look alike come from different tables or passages of the source.

B1: C1 (VHH)
VHH: QVQLVESGGGLVQPGGSLRLSCAASGFTNDFYSIAWFRQAPGKEREGVSWLSVSDNTPTYVDSVKDRFTISRHNANNTVYLQMNMLKPEDTAIYYCAAGRFAGRDTWPSSYDYWGQGTQVTVSS
With B1, in the assay with Alpha RBD [1], the dissociation constant Kd – broadly, a measure of binding affinity in units of concentration – was found to be 0.725 nM and the T1/2 turned out to be 21 min.

B2: C1 trimer (VHH)
chain: QVQLVESGGGLVQPGGSLRLSCAASGFTNDFYSIAWFRQAPGKEREGVSWLSVSDNTPTYVDSVKDRFTISRHNANNTVYLQMNMLKPEDTAIYYCAAGRFAGRDTWPSSYDYWGQGTQVTVSSGSGSGSQVQLVESGGGLVQPGGSLRLSCAASGFTNDFYSIAWFRQAPGKEREGVSWLSVSDNTPTYVDSVKDRFTISRHNANNTVYLQMNMLKPEDTAIYYCAAGRFAGRDTWPSSYDYWGQGTQVTVSSGSGSGSQVQLVESGGGLVQPGGSLRLSCAASGFTNDFYSIAWFRQAPGKEREGVSWLSVSDNTPTYVDSVKDRFTISRHNANNTVYLQMNMLKPEDTAIYYCAAGRFAGRDTWPSSYDYWGQGTQVTVSS
Regarding B2, in the assay with Alpha RBD [2], binding was put at a Kd of 0.073 nM, the T1/2 came out at 154 min, the koff (commonly the rate constant with which the complex falls apart) turned out to be 7.4e-05 s⁻¹ and the kon (usually the second-order rate constant of association) was determined as 1e+06 M⁻¹ s⁻¹.

B3: C5 (VHH)
VHH: QVQLVESGGGSVQAGGSLTLSCVASGVTLGRHAIGWFRQAPGKERERVSCIRTFDGITSYVESTKGRFTISSNNAMNTVYLQMNSLKPEDTAVYFCALGVTAACSDNPYFWGQGTQVTVSS
notes: also called VHH C5
As for B3, in the assay with Alpha RBD [1], binding was characterised by a dissociation constant (Kd) of 2.52 nM and the T1/2 was found to be 1 min.

B4: C5 trimer (VHH)
chain: QVQLVESGGGSVQAGGSLTLSCVASGVTLGRHAIGWFRQAPGKERERVSCIRTFDGITSYVESTKGRFTISSNNAMNTVYLQMNSLKPEDTAVYFCALGVTAACSDNPYFWGQGTQVTVSSGSGSGSQVQLVESGGGSVQAGGSLTLSCVASGVTLGRHAIGWFRQAPGKERERVSCIRTFDGITSYVESTKGRFTISSNNAMNTVYLQMNSLKPEDTAVYFCALGVTAACSDNPYFWGQGTQVTVSSGSGSGSQVQLVESGGGSVQAGGSLTLSCVASGVTLGRHAIGWFRQAPGKERERVSCIRTFDGITSYVESTKGRFTISSNNAMNTVYLQMNSLKPEDTAVYFCALGVTAACSDNPYFWGQGTQVTVSS
notes: also called trimeric C5 nanobody; C5-6GS-C5-6GS-C5
In the assay with Alpha RBD [2], B4 gave a Kd of 0.029 nM and a T1/2 of 41 min.

B5: F2 (VHH)
VHH: QVQLVESGGGLVQAGGSLRLACIASGRTFHSYVMAWFRQAPGKEREFVAAISWSSTPTYYGESVKGRFTISRDNAKNTVYLQMNRLKPEDTAVYFCAADRGESYYYTRPTEYEFWGQGTQVTVSS
notes: also called VHH F2
Regarding B5, in the assay with Alpha RBD [1], the Kd worked out at 0.047 nM and the T1/2 came to 51 min.

B6: H3 trimer (VHH)
chain: QVQLVESGGGLVKTGGSLRLSCAASGRTFSTYSMGWFRQAPGKEREFVAGMRWTGSSTFYSDSVKGRFTVSRNNAKDTVYLHMNSLKPEDTAVYYCAITTIVRAYYTEYTEADFGSWGQGTQVTVSSGAVLAPQVQLVESGGGLVKTGGSLRLSCAASGRTFSTYSMGWFRQAPGKEREFVAGMRWTGSSTFYSDSVKGRFTVSRNNAKDTVYLHMNSLKPEDTAVYYCAITTIVRAYYTEYTEADFGSWGQGTQVTVSSGSGSGSQVQLVESGGGLVKTGGSLRLSCAASGRTFSTYSMGWFRQAPGKEREFVAGMRWTGSSTFYSDSVKGRFTVSRNNAKDTVYLHMNSLKPEDTAVYYCAITTIVRAYYTEYTEADFGSWGQGTQVTVSS
In the assay with Alpha RBD [2], B6 gave a Kd of 0.006 nM, a T1/2 of 98 min, a koff of 0.00012 s⁻¹ and a kon of 1.8e+07 M⁻¹ s⁻¹.

B7: H3 (VHH)
VHH: QVQLVESGGGLVKTGGSLRLSCAASGRTFSTYSMGWFRQAPGKEREFVAGMRWTGSSTFYSDSVKGRFTVSRNNAKDTVYLHMNSLKPEDTAVYYCAITTIVRAYYTEYTEADFGSWGQGTQVTVSS
On to B7, for which, in the assay with Alpha RBD [1], binding was put at a Kd of 0.102 nM and the T1/2 turned out to be 10 min.
